For the test, the target named is NS2/3 (810-1615BK): HCV residues 810-1615 of the BK strain, all of NS2 and most of NS3 (Hepatitis C virus, BK strain) (UniProt P26663). Briefly: co-immunoprecipitation with anti-HSP90 mAb 3G3; NS2/3 synthesized in reticulocyte lysate with or without 10 µM geldanamycin (small molecule).
Sequence of UniProt P26663 (P26663 810-1615): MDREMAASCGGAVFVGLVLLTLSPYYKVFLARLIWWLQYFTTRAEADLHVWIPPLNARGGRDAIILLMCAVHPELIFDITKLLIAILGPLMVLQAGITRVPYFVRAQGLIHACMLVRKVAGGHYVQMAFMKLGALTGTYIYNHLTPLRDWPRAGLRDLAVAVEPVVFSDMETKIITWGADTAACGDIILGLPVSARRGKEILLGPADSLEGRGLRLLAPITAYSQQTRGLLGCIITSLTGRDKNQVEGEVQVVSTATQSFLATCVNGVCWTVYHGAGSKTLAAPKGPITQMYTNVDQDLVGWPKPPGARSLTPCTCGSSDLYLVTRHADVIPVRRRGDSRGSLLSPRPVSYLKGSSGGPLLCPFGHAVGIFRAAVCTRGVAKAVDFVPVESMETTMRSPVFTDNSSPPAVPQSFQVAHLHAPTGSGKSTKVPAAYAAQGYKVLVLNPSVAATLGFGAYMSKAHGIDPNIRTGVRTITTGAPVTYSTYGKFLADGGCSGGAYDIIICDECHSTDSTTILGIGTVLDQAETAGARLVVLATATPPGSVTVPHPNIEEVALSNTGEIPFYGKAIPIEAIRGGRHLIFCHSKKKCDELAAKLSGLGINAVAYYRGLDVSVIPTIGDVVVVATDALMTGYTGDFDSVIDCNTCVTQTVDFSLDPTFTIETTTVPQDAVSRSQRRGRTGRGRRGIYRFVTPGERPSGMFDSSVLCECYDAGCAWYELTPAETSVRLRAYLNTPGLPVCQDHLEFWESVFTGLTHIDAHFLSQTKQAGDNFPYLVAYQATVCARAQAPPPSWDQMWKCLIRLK

As for “heat shock protein 90 (HSP90) (from UniProt P30947 2-726)”, the decrease of the amount of NS2/3 co-immunoprecipitated in the presence of 10 µM geldanamycin worked out at 60%.

The values above are taken from patent US20030211469A1, “Inhibiting hepatitis c virus processing and replication” (priority 2003, published 2003).
